# Source: patent US20100074892A1 (US Dept. of Health and Human Services, published 2010)
# Molecular target: recombinant anthrax protective antigen (PA) (Bacillus anthracis, UniProt P13423 30-764)
# Assay: SPR (Biacore 3000), antibody immobilized on CM3, PA in solution
# Chain of recombinant anthrax protective antigen (PA) (P13423 30-764 limits assumed): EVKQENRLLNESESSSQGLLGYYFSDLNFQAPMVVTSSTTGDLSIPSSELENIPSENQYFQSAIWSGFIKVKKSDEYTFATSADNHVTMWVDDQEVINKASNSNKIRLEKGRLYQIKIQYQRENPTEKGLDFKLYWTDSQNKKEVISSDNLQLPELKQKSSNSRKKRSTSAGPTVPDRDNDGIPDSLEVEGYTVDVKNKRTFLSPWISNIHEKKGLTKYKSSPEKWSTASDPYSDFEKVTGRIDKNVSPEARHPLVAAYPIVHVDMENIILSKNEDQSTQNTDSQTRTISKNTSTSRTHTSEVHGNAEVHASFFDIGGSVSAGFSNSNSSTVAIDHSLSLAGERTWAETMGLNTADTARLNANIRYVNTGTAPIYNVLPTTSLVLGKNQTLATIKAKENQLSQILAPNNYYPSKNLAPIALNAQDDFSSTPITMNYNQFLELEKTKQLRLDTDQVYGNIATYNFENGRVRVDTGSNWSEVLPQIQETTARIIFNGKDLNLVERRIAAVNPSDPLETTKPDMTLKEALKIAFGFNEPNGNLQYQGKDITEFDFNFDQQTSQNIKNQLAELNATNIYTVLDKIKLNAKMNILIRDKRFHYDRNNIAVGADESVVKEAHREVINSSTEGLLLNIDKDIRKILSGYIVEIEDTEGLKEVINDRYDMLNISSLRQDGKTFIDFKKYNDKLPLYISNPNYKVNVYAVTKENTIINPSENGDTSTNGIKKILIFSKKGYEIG
binder,measurement,value
"anti-PA W1 full-length IgG1 (antibody, V domains shown) VH: EVQLLETGGGLVQPGGSLRLSCAASGFTLRSYHMSWVRRAPGKGLEWVSVIYDGGSTSYADSVKGRFTISRDNSKNTLYLQMTSLRAEDTAVYYCARSGRPLQNYYYMDVWGKGTTVTVSS VL: not shown",Kd,0.0397 nM
same,koff,1.15e-05 s⁻¹
same,kon,290000 M⁻¹ s⁻¹
